# Laboratory results as given in PMC10750099, “Mapping immunological and host receptor binding determinants of SARS-CoV spike protein utilizing the Qubevirus platform” (The Journal of Biological Chemistry, 2023).
# B1: recombinant Qβ phage QβF6 displaying SARS-CoV spike fragment F6 (S425-525) at the C terminus of the A1 minor coat protein (domain or fragment)
# chain: not shown
# notes: also called GF6; QF6
# Biological target: T1, recombinant human angiotensin-converting enzyme 2 (human, UniProt Q9BYF1 18-740)
# T1 construct: also called rhACE2; hACE2
# Test: phage display biopanning
# Details: both partners purified
# T1 sequence (Q9BYF1 18-740): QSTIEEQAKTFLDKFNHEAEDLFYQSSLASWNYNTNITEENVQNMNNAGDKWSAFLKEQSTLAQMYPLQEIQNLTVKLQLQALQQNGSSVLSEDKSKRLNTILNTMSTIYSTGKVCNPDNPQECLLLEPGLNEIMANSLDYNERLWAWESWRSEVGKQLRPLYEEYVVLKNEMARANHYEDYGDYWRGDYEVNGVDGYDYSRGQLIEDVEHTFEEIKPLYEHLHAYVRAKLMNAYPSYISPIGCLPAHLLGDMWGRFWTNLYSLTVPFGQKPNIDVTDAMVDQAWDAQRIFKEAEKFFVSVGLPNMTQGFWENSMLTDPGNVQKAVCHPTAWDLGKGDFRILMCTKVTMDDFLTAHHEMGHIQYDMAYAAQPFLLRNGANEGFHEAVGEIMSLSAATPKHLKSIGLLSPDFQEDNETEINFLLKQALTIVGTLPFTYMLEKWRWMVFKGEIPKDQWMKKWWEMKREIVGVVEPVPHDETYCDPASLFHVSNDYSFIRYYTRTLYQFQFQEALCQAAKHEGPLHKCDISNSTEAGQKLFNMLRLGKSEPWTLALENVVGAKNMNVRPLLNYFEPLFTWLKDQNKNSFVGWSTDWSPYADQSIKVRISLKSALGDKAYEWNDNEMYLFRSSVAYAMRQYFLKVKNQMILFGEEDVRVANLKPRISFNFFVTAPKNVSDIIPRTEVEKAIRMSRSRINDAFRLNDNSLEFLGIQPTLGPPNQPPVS
binder,measurement,value
B1,binding result,binds
